ChEMBL document CHEMBL1145552, “Substrate specificity and diastereoselectivity of strictosidine glucosidase, a key enzyme in monoterpene indole alkaloid biosynthesis” (Bioorg Med Chem Lett, 2008)

Legend:
[1] = biological target: T1, Strictosidine beta-glucosidase (Catharanthus roseus) (UniProt Q9M7N7); experiment: Ratio of relative Vmax to K0.5 of Catharanthus roseus strictosidine glucosidase
T1 sequence (whole entry): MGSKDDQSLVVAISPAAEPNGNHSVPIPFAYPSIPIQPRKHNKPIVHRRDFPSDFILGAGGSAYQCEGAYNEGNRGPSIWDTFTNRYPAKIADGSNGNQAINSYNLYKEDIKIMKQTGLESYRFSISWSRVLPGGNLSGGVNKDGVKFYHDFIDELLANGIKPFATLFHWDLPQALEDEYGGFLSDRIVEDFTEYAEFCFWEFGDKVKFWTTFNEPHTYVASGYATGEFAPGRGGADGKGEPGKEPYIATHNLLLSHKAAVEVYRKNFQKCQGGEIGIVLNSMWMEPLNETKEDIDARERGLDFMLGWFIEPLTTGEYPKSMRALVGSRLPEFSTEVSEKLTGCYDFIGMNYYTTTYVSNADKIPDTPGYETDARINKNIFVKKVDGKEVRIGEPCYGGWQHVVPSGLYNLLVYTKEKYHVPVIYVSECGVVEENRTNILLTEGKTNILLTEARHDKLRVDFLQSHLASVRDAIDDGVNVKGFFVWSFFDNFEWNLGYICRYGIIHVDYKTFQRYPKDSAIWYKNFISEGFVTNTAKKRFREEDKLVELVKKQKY

[2] = substrate: C=C[C@H]1[C@H](O[C@@H]2O[C@H](CO)[C@@H](O)[C@H](O)[C@H]2O)OC=C(C(=O)OC)[C@H]1C[C@@H]1NCCc2c1[nH]c1ccc(OC)cc21; experiment: (§1) Activity of Catharanthus roseus strictosidine glucosidase
[3] = substrate: C=C[C@H]1[C@H](O[C@@H]2O[C@H](CO)[C@@H](O)[C@H](O)[C@H]2O)OC=C(C(=O)OC)[C@H]1C[C@@H]1NCCc2c1[nH]c1cc(F)ccc21; experiment: as §1
[4] = substrate: C=C[C@H]1[C@H](O[C@@H]2O[C@H](CO)[C@@H](O)[C@H](O)[C@H]2O)OC=C(C(=O)OC)[C@H]1C[C@@H]1NCCc2c1[nH]c1ccc(C)cc21; experiment: as §1
[5] = substrate: C=C[C@H]1[C@H](O[C@@H]2O[C@H](CO)[C@@H](O)[C@H](O)[C@H]2O)OC=C(C(=O)OC)[C@H]1C[C@@H]1NCCc2c1[nH]c1ccc(F)cc21; experiment: as §1
[6] = substrate: C=C[C@H]1[C@H](O[C@@H]2O[C@H](CO)[C@@H](O)[C@H](O)[C@H]2O)OC=C(C(=O)OC)[C@H]1C[C@@H]1NCCc2c1[nH]c1cccc(C)c21; experiment: as §1
[7] = substrate: C=C[C@H]1[C@H](O[C@@H]2O[C@H](CO)[C@@H](O)[C@H](O)[C@H]2O)OC=C(C(=O)OC)[C@H]1C[C@@H]1NCCc2c1[nH]c1cc(OC)ccc21; experiment: as §1
[8] = substrate: C=C[C@H]1[C@H](O[C@@H]2O[C@H](CO)[C@@H](O)[C@H](O)[C@H]2O)OC=C(C(=O)OC)[C@H]1C[C@@H]1NCCc2c1[nH]c1c(C)cccc21; experiment: as §1
[9] = substrate: C=C[C@H]1[C@H](O[C@@H]2O[C@H](CO)[C@@H](O)[C@H](O)[C@H]2O)OC=C(C(=O)OC)[C@H]1C[C@@H]1NCCc2c1[nH]c1ccccc21; experiment: as §1
[10] = substrate: C=C[C@H]1[C@H](O[C@@H]2O[C@H](CO)[C@@H](O)[C@H](O)[C@H]2O)OC=C(C(=O)OC)[C@H]1C[C@@H]1NCCc2c1[nH]c1cc(C)ccc21; experiment: as §1

Molecule: C=C[C@H]1[C@H](O[C@@H]2O[C@H](CO)[C@@H](O)[C@H](O)[C@H]2O)OC=C(C(=O)OC)[C@H]1C[C@@H]1NCCc2c1[nH]c1ccc(C)cc21
- Ratio [1]: 0.6 min⁻¹

Molecule: C=C[C@H]1[C@H](O[C@@H]2O[C@H](CO)[C@@H](O)[C@H](O)[C@H]2O)OC=C(C(=O)OC)[C@H]1C[C@@H]1NCCc2c1[nH]c1ccc(OC)cc21
- Ratio [1]: 0.3 min⁻¹

Molecule: C=C[C@H]1[C@H](O[C@@H]2O[C@H](CO)[C@@H](O)[C@H](O)[C@H]2O)OC=C(C(=O)OC)[C@H]1C[C@@H]1NCCc2c1[nH]c1ccccc21
- Ratio [1]: 1 min⁻¹

Molecule: C=C[C@H]1[C@H](O[C@@H]2O[C@H](CO)[C@@H](O)[C@H](O)[C@H]2O)OC=C(C(=O)OC)[C@H]1C[C@@H]1NCCc2c1[nH]c1cc(C)ccc21
- Ratio [1]: 0.5 min⁻¹

Molecule: C=C[C@H]1[C@H](O[C@@H]2O[C@H](CO)[C@@H](O)[C@H](O)[C@H]2O)OC=C(C(=O)OC)[C@H]1C[C@@H]1NCCc2c1[nH]c1cccc(C)c21
- Ratio [1]: 0.2 min⁻¹

Molecule: C=C[C@H]1[C@H](O[C@@H]2O[C@H](CO)[C@@H](O)[C@H](O)[C@H]2O)OC=C(C(=O)OC)[C@H]1C[C@@H]1NCCc2c1[nH]c1cc(OC)ccc21
- Ratio [1]: 0.2 min⁻¹

Molecule: C=C[C@H]1[C@H](O[C@@H]2O[C@H](CO)[C@@H](O)[C@H](O)[C@H]2O)OC=C(C(=O)OC)[C@H]1C[C@@H]1NCCc2c1[nH]c1c(C)cccc21
- Ratio [1]: 0.3 min⁻¹

Molecule: C=C[C@H]1[C@H](O[C@@H]2O[C@H](CO)[C@@H](O)[C@H](O)[C@H]2O)OC=C(C(=O)OC)[C@H]1C[C@@H]1NCCc2c1[nH]c1cc(F)ccc21
- Ratio [1]: 0.7 min⁻¹

Molecule: C=C[C@H]1[C@H](O[C@@H]2O[C@H](CO)[C@@H](O)[C@H](O)[C@H]2O)OC=C(C(=O)OC)[C@H]1C[C@@H]1NCCc2c1[nH]c1ccc(F)cc21
- Ratio [1]: 0.7 min⁻¹

B1: Strictosidine beta-glucosidase (Catharanthus roseus), Q9M7N7 (protein)
chain: MGSKDDQSLVVAISPAAEPNGNHSVPIPFAYPSIPIQPRKHNKPIVHRRDFPSDFILGAGGSAYQCEGAYNEGNRGPSIWDTFTNRYPAKIADGSNGNQAINSYNLYKEDIKIMKQTGLESYRFSISWSRVLPGGNLSGGVNKDGVKFYHDFIDELLANGIKPFATLFHWDLPQALEDEYGGFLSDRIVEDFTEYAEFCFWEFGDKVKFWTTFNEPHTYVASGYATGEFAPGRGGADGKGEPGKEPYIATHNLLLSHKAAVEVYRKNFQKCQGGEIGIVLNSMWMEPLNETKEDIDARERGLDFMLGWFIEPLTTGEYPKSMRALVGSRLPEFSTEVSEKLTGCYDFIGMNYYTTTYVSNADKIPDTPGYETDARINKNIFVKKVDGKEVRIGEPCYGGWQHVVPSGLYNLLVYTKEKYHVPVIYVSECGVVEENRTNILLTEGKTNILLTEARHDKLRVDFLQSHLASVRDAIDDGVNVKGFFVWSFFDNFEWNLGYICRYGIIHVDYKTFQRYPKDSAIWYKNFISEGFVTNTAKKRFREEDKLVELVKKQKY
- Km [2]: 370 µM
- Vmax [2]: 0.035 mM/min
- Km [3]: 120 µM
- Vmax [3]: 0.032 mM/min
- Km [4]: 71 µM
- Vmax [4]: 0.016 mM/min
- Km [5]: 150 µM
- Vmax [5]: 0.038 mM/min
- Km [6]: 220 µM
- Vmax [6]: 0.018 mM/min
- Km [7]: 430 µM
- Vmax [7]: 0.037 mM/min
- Km [8]: 140 µM
- Vmax [8]: 0.016 mM/min
- Km [9]: 220 µM
- Vmax [9]: 0.078 mM/min
- Km [10]: 92 µM
- Vmax [10]: 0.017 mM/min
